A short description of the series: self-splicing fitness, log relative to wild type (ln ratio); higher = more splicing; Tetrahymena group I intron in knt gene, E. coli kanamycin selection, DiMSum; sequences stand for … in CUCUCU…GGAGGGAAAAGUUAUCAGGCAUGCACCUGGUAGCUAGUCUUUAAACCAAUAGAUUGCAUCGGUUUAAAAGGCAAGACCGUCAAAUUGCGGGAAAGGGGUCAACAGCCGUUCAGUACCAAGUCUCAGGGGAAACUUUGAGAUGGCCUUGCAAAGGGUAUGGUAAUAAGCUGACGGACAUGGUCCUAACCACGCAGCCAAGUCCUAAGUCAACAGAUCUUCUGUUGAUAUGGAUGCAGUUCACAGACUAAAUGUCGGUCGGGGAAGAUGUAUUCUUCUCAUAAGAUAUAGUCGGACCUCUCCUUAAUGGGAGCUAGCGGAUGAAGUGAUGCAACACUGGAGCCGCUGGGAACUAAUUUGUAUGCGAAAGUAUAUUGAUUAGUUUUGGAGUACUCGUGGUCG
The method in brief:
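Fitness was computed with DiMSum as the error-weighted combination of replicate fold changes, kanamycin versus none, each normalised to wild type. The library randomised all eight intron nucleotides of the P1ex region, with the intron placed in the knt kanamycin-resistance gene on pET-22b(+) in E. coli BL21(DE3). Six replicate transformations were grown overnight at 37°C or 30°C on LB agar with or without 25 μg/mL kanamycin, plus 100 μg/mL carbenicillin, 50 μM IPTG and 0.2% rhamnose. Pooled colonies were amplicon-sequenced on an Illumina HiSeq 2500.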

The values that follow come from the supplement of paper PMC7877785.

± gives the uncertainty stated by the source.

Take AUUUAGCAAUAUUACGAAUU: the “self-splicing fitness (ln)” value is -3.21 ± 0.35 (30 °C) and -1.85 ± 0.38 (37 °C). For AUAAAGCAAUAUUACGGGAA, in that order: -1.08 ± 0.097 and -0.426 ± 0.14. For GCCUAGCAAUAUUACGGAAG, in that order: -2.96 ± 0.17 and -1.44 ± 0.17. For the sequence CAAAAGCAAUAUUACGGCAG, the “self-splicing fitness (ln)” value was 0.126 ± 0.077 (30 °C) and -0.164 ± 0.089 (37 °C). AUCGAGCAAUAUUACGAAGU: the “self-splicing fitness (ln)” value (30 °C) is -2.62 ± 0.18 and the “self-splicing fitness (ln)” value (37 °C) is -1.49 ± 0.18.

With UGGUAGCAAUAUUACGAUCG, the “self-splicing fitness (ln)” value is, setting by setting: (30 °C) 0.32 ± 0.085; (37 °C) 0.623 ± 0.11. For GUACAGCAAUAUUACGCCAU, the “self-splicing fitness (ln)” value reads like this: (30 °C) -3.46 ± 0.23; (37 °C) -2.32 ± 0.15.

Regarding CUAGAGCAAUAUUACGGUCU, where the note is “37 °C”, the “self-splicing fitness (ln)” value is -3.69 ± 0.34. In the case of GUUUAGCAAUAUUACGUUUA, the “self-splicing fitness (ln)” value (30 °C) was -2.69 ± 0.23 and the “self-splicing fitness (ln)” value (37 °C) was -0.853 ± 0.17. Regarding GCGAAGCAAUAUUACGGCUU, the “self-splicing fitness (ln)” value (30 °C) is -2.39 ± 0.36. In the case of CUACAGCAAUAUUACGCGCG, the “self-splicing fitness (ln)” value is, setting by setting: (30 °C) -1.36 ± 0.082; (37 °C) -0.796 ± 0.11.

GACUAGCAAUAUUACGAGUG: the “self-splicing fitness (ln)” value runs as follows: (30 °C) -0.94 ± 0.078; (37 °C) -0.316 ± 0.098. For AUGAAGCAAUAUUACGUUCA, in that order: 0.00482 ± 0.072 and 0.318 ± 0.1. With AUACAGCAAUAUUACGUGGC, the “self-splicing fitness (ln)” value by setting is: (30 °C) -3.22 ± 0.12; (37 °C) -2.39 ± 0.15. Consider CGUAAGCAAUAUUACGGCGA, for which the “self-splicing fitness (ln)” value by setting is: (30 °C) -2.31 ± 0.2; (37 °C) -2.02 ± 0.25. For the sequence UUUGAGCAAUAUUACGAUCA, the “self-splicing fitness (ln)” value is -2.12 ± 0.24 (30 °C) and -1.28 ± 0.25 (37 °C). For AGCUAGCAAUAUUACGGGUC, in that order: -2.59 ± 0.17 and -1.7 ± 0.15. For GGGAAGCAAUAUUACGGAGU, in that order: -2.86 ± 0.12 and -2.05 ± 0.16. In the case of CAGUAGCAAUAUUACGAAUU, the “self-splicing fitness (ln)” value (30 °C) was -3.34 ± 0.28. In the case of GUAAAGCAAUAUUACGGUAU, the “self-splicing fitness (ln)” value was -0.495 ± 0.059 (30 °C) and 0.118 ± 0.084 (37 °C). Turning to GGUAAGCAAUAUUACGUUAA, the “self-splicing fitness (ln)” value was -2.57 ± 0.29 (30 °C) and -1.37 ± 0.2 (37 °C). On to UCGGAGCAAUAUUACGCAGA, for which the “self-splicing fitness (ln)” value (37 °C) was -2.13 ± 0.23. As to GGACAGCAAUAUUACGGACU, the “self-splicing fitness (ln)” value is, setting by setting: (30 °C) -1.01 ± 0.079; (37 °C) -0.461 ± 0.09.

Turning to AAUUAGCAAUAUUACGAGCU, the “self-splicing fitness (ln)” value (30 °C) is -1.02 ± 0.12 and the “self-splicing fitness (ln)” value (37 °C) is -0.169 ± 0.15. For UAUUAGCAAUAUUACGAGUU, in that order: -2.88 ± 0.16 and -0.971 ± 0.15.

For the sequence AACCAGCAAUAUUACGCCGU, the “self-splicing fitness (ln)” value is -1.03 ± 0.079 (30 °C) and 0.182 ± 0.1 (37 °C).

For AUUCAGCAAUAUUACGAAAC, the “self-splicing fitness (ln)” value was -1.17 ± 0.061 (30 °C) and -0.231 ± 0.1 (37 °C). For AUUUAGCAAUAUUACGAACU, in that order: 0.198 ± 0.13 and 0.211 ± 0.14.

With GCUUAGCAAUAUUACGUGUA, the “self-splicing fitness (ln)” value by setting is: (30 °C) -1.03 ± 0.077; (37 °C) -0.175 ± 0.083. For UUGAAGCAAUAUUACGAUGG, in that order: -0.452 ± 0.07 and 0.232 ± 0.1. For AAAAAGCAAUAUUACGGGUC, in that order: -3.39 ± 0.16 and -2.7 ± 0.26. For CGUAAGCAAUAUUACGACUU, in that order: -3.09 ± 0.23 and -1.35 ± 0.22.

With ACUGAGCAAUAUUACGGAAA, the “self-splicing fitness (ln)” value is -2.92 ± 0.27 (30 °C) and -2.61 ± 0.28 (37 °C). For UGCGAGCAAUAUUACGUUUG, in that order: -3.45 ± 0.21 and -2.88 ± 0.21. For CCUUAGCAAUAUUACGAAUG, in that order: -1.27 ± 0.11 and -0.423 ± 0.1. For CCAUAGCAAUAUUACGAUAC, in that order: -3 ± 0.29 and -2.33 ± 0.23. ACUCAGCAAUAUUACGAUCU: the “self-splicing fitness (ln)” value (30 °C) was -0.0985 ± 0.064 and the “self-splicing fitness (ln)” value (37 °C) was 0.407 ± 0.08.

For UGAGAGCAAUAUUACGGGGU, the “self-splicing fitness (ln)” value (37 °C) was -2.4 ± 0.48.

Take CGCUAGCAAUAUUACGACGC: where the note is “37 °C”, the “self-splicing fitness (ln)” value was -1.92 ± 0.17.

Turning to UCGCAGCAAUAUUACGGGCA, the “self-splicing fitness (ln)” value (30 °C) is -1.41 ± 0.4 and the “self-splicing fitness (ln)” value (37 °C) was -0.479 ± 0.23.
